T1: PNPase WT (Escherichia coli, UniProt P05055 1-711)
T1 sequence: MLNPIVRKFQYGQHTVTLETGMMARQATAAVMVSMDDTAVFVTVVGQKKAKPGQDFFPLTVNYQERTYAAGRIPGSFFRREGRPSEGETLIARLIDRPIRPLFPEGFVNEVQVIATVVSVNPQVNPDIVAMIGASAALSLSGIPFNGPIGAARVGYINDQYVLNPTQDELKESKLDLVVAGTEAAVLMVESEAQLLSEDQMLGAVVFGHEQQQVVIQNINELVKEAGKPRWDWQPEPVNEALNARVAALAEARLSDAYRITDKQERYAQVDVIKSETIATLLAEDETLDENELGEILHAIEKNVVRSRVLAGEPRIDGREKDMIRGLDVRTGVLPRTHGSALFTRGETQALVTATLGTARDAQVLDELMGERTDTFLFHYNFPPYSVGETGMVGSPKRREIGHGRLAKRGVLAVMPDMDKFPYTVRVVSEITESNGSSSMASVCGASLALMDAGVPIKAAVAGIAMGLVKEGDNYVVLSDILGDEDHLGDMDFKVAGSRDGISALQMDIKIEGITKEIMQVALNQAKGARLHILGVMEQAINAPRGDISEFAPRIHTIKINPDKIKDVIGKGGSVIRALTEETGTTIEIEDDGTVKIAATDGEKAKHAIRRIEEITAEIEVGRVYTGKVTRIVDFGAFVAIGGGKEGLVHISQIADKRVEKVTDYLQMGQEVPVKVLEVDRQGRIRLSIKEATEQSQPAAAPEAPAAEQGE

B1: CyaR (structured_RNA)
RNA: GCUGAAAAACAUAACCCAUAAAAUGCUAGCUGUACCAGGAACCACCUCCUUAGCCUGUGUAAUCUCCCUUACACGGGCUUAUUUUUU
B2: 3'ETSleuZ (structured_RNA)
RNA: GGGAAAGAUAAGAAUAAAAUCAAAGCAAUAAGCAGUGUCGUGAAACCACCUUCGGGUGGUUUUUUU

How the values were obtained:
PNPase WT;Hfq [1] = target: T2, PNPase WT;Hfq (Escherichia coli;Escherichia coli, UniProt P05055;P0A6X3 1-711;1-102, |); test: cryo-EM; two stacked Hfq hexamers; EMSA: 0.4 uM RNA, PNPase trimer 1:1 and 3:1 over RNA, 20 mM Tris pH 7.5, 100 mM NaCl, 1 mM MgCl2, 1 mM DTT, 30 C 20 min; native PAA gel with 10% glycerol, Tris-glycine pH 8.5; conditions: protein: recombinant;recombinant; tags: ;; chain copies: 3;12; single strand
PNPase WT = target: T1, PNPase WT; test: cryo-EM; phosphorolytic mode; 8 RNA nt modelled; EMSA: 0.4 uM RNA, PNPase trimer 1:1 and 3:1 over RNA, 20 mM Tris pH 7.5, 100 mM NaCl, 1 mM MgCl2, 1 mM DTT, 30 C 20 min; native PAA gel with 10% glycerol, Tris-glycine pH 8.5; conditions: protein: recombinant; chain copies: 3; single strand with hairpin
PNPase WT;Hfq [2] = target: T2, PNPase WT;Hfq; test: cryo-EM; carrier complex; 50 RNA nt modelled; EMSA: 0.4 uM RNA, PNPase trimer 1:1 and 3:1 over RNA, 20 mM Tris pH 7.5, 100 mM NaCl, 1 mM MgCl2, 1 mM DTT, 30 C 20 min; native PAA gel with 10% glycerol, Tris-glycine pH 8.5; conditions: protein: recombinant;recombinant; tags: ;; chain copies: 3;6; single strand with hairpin

Row | Binder | binding result (PNPase WT;Hfq [1]) | binding result (PNPase WT) | binding result (PNPase WT;Hfq [2])
1 | B1 | binds |  | 
2 | B2 |  | binds | binds

From PMC8294330, “A cooperative PNPase-Hfq-RNA carrier complex facilitates bacterial riboregulation”
